Results on 17 molecules are retold here after patent US20260274985A1 (MYTHIC THERAPEUTICS, published 2026).

The chains are these.
T1: Human TROP2 Protein, His Tag (Acro Biosystems) (human, UniProt P09758 27-274)
T1 construct: not shown: His tag
T1 sequence (looked up): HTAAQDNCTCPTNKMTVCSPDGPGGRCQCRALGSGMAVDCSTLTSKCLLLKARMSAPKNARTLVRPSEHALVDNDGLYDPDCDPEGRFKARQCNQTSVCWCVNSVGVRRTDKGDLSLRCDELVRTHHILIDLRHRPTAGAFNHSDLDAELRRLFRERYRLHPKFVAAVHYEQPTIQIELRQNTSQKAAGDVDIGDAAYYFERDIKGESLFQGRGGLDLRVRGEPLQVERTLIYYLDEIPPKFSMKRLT

B1: MYT12302 (antibody, V domains shown)
VH: QVQLQQSGSELKKPGASVKVSCKASGYTFTNYHMNWVKQAPGQGLKWMGWINTYTGEPTYTHDFKGRFAFSLDTSVSTAYLQISSLKADDTAVYFCARGGFGSSYWYFDVWGQGSLVTVSS
VL: DIQLTQSPSSLSASVGDRVSITCKASQDVSIAVAWYQQKPGKAPKLLIYSASYRYTGVPDRFSGSGSGTDFTLTISSLQPEDFAVYYCQQHYITPLTFGAGTKVEIK
notes: sacituzumab VH 33, 62 -> H
B2: MYT12310 (antibody, V domains shown)
VH: B1 VH with H33G, Y60H, H62D, K65H
VL: B1 VL
notes: sacituzumab VH 60, 65 -> H
B3: MYT12368 (antibody, V domains shown)
VH: B1 VH with H33G, H62D
VL: B1 VL with S30H, A51H, Y53H
notes: sacituzumab VL 30, 51, 53 -> H
B4: MYT12306 (antibody, V domains shown)
VH: B1 VH with H62D, G66H
VL: B1 VL
notes: sacituzumab VH 33, 66 -> H
B5: MYT12348 (antibody, V domains shown)
VH: B1 VH with H33G, H62D
VL: B1 VL with A51H, Y53H
notes: sacituzumab VL 51, 53 -> H
B6: MYT12367 (antibody, V domains shown)
VH: B1 VH with H33G, H62D
VL: B1 VL with Y92H, I93H
notes: sacituzumab VL 92, 93 -> H
B7: MYT12342 (antibody, V domains shown)
VH: B1 VH with H33G, H62D
VL: B1 VL with V33H, Y53H
notes: sacituzumab VL 33, 53 -> H
B8: MYT12320 (antibody, V domains shown)
VH: B1 VH with H33G, H62D, F64H, G66H
VL: B1 VL
notes: sacituzumab VH 64, 66 -> H
B9: MYT12349 (antibody, V domains shown)
VH: B1 VH with H33G, H62D
VL: B1 VL with A51H, Q89H
notes: sacituzumab VL 51, 89 -> H
B10: MYT12346 (antibody, V domains shown)
VH: B1 VH with H33G, H62D
VL: B1 VL with V33H, I93H
notes: sacituzumab VL 33, 93 -> H
B11: MYT12358 (antibody, V domains shown)
VH: B1 VH with H33G, H62D
VL: B1 VL with Y53H, Q89H
notes: sacituzumab VL 53, 89 -> H
B12: MYT12319 (antibody, V domains shown)
VH: B1 VH with H33G, H62D, F64H, K65H
VL: B1 VL
notes: sacituzumab VH 64, 65 -> H
B13: MYT12347 (antibody, V domains shown)
VH: B1 VH with H33G, H62D
VL: B1 VL with A51H, S52H
notes: sacituzumab VL 51, 52 -> H
B14: MYT12343 (antibody, V domains shown)
VH: B1 VH with H33G, H62D
VL: B1 VL with V33H, Q89H
notes: sacituzumab VL 33, 89 -> H
B15: MYT12318 (antibody, V domains shown)
VH: B1 VH with H33G, H62D, D63H, G66H
VL: B1 VL
notes: sacituzumab VH 63, 66 -> H
B16: MYT12354 (antibody, V domains shown)
VH: B1 VH with H33G, H62D
VL: B1 VL with S52H, Q89H
notes: sacituzumab VL 52, 89 -> H
B17: MYT12369 (antibody, V domains shown)
VH: B1 VH with H33G, H62D
VL: B1 VL with S30H, A51H, Q89H
notes: sacituzumab VL 30, 51, 89 -> H

Positions count from the first letter of the chain named.

The assay has as its target T1, Human TROP2 Protein, His Tag (Acro …). As to the kind of experiment: BLI (Octet).
Turning to B1, the binding result is recorded as “binds”. As for B2, the entry is “binds”.

In the case of B3, the binding result is listed as “binds”. As for B4, the entry is “binds”; as for B5, “binds”. As for B6, the entry is “binds”; as for B7, “binds”.

On to B8, for which the binding result is listed as “binds”.

On to B9, for which the binding result is “binds”. As for B10, the entry is “binds”.

Turning to B11, the binding result is reported as “binds”. As for B12, the entry is “binds”. As for B13, the entry is “binds”; as for B14, “binds”. With B15, the binding result is reported as “binds”. As for B16, the entry is “binds”; as for B17, “binds”.
